From article PMC3464217 (2012)

How the values were obtained:
Test in all cases: SPR
recombinant gp160 [1] = target: T1, recombinant gp160 (HIV (IIIB or MN/LAI))
recombinant gp160 [2] = target: T1, recombinant gp160; remark: listed apart in the source
recombinant gp160 [3] = target: T1, recombinant gp160; remark: listed apart in the source

| Binder | koff (recombinant gp160 [1]) [s⁻¹] | Kd (recombinant gp160 [2]) [nM] | Ka (recombinant gp160 [3]) [M⁻¹] |
| --- | --- | --- | --- |
| HY (antibody, V domains shown) VH: QVQLEQSGAEVKKPGASVKVSCQASGYRFSHFTVHWVRQAPGQRFEWMGWINPYNGNKEFSAKFQDRVTFTADTSANTAYMELRSLRSADTAVYYCARVGEWGWDDSPYDNYYMDVWGKGTTVIVSS VL: EIVLTQSPGTLSLSPGERATFSCRSSHSIRSRRVAWYQHKPGQAPRLVIHGVSNRASGISDRFSGSGSGTDFTLTITRVEPEDFALYYCQVYGASSYTFGQGTKLERK | 0.018 | 370 | 2.7e+06 |
| 7B2 (antibody, V domains shown) VH: QVQLVQSGGGVFKPGGSLRLSCEASGFTFTEYYMTWVRQAPGKGLEWLAYISKNGEYSKYSPSSNGRFTISRDNAKNSVFLQLDRLSADDTAVYYCARADGLTYFSELLQYIFDLWGQGARVTVSS VL: DIVMTQSPDSLAVSPGERATIHCKSSQTLLYSSNNRHSIAWYQQRPGQPPKLLLYWASMRLSGVPDRFSGSGSGTDFTLTINNLQAEDVAIYYCHQYSSHPPTFGHGTRVELR | 4.9e-05 | 0.31 | 3.4e+09 |
